Residue numbers refer to the chain shown, from its start.
T1: human CD32B expressed on CHO-K1 cells (human, UniProt P31994 43-310)
T1 construct: whole, on cells; also called hCD32B
T1 sequence (looked up): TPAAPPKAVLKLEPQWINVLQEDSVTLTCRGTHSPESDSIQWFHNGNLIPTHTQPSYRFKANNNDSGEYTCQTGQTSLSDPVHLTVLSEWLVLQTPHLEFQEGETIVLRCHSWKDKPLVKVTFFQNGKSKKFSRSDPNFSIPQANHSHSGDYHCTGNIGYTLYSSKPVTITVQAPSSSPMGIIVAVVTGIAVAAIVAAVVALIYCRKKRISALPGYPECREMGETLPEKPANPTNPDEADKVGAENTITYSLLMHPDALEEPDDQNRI

B1: 42F5H2-hIgG1 LALAPG (antibody)
heavy: QVQLQQPGAELVRPGASVKLSCKASGYTFTSYWMNWVKQRPGQGLEWIGMIDPSDSETHHNQMFKDKATLTVDKSSSTAYMQLSSLTSEDSAVYYCAKWLPPYAMDYWGQGTSVTVSSASTKGPSVFPLAPSSKSTSGGTAALGCLVKDYFPEPVTVSWNSGALTSGVHTFPAVLQSSGLYSLSSVVTVPSSSLGTQTYICNVNHKPSNTKVDKKVEPKSCDKTHTCPPCPAPEAAGGPSVFLFPPKPKDTLMISRTPEVTCVVVDVSHEDPEVKFNWYVDGVEVHNAKTKPREEQYNSTYRVVSVLTVLHQDWLNGKEYKCKVSNKALGAPIEKTISKAKGQPREPQVYTLPPSREEMTKNQVSLTCLVKGFYPSDIAVEWESNGQPENNYKTTPPVLDSDGSFFLYSKLTVDKSRWQQGNVFSCSVMHEALHNHYTQKSLSLSPGK
light: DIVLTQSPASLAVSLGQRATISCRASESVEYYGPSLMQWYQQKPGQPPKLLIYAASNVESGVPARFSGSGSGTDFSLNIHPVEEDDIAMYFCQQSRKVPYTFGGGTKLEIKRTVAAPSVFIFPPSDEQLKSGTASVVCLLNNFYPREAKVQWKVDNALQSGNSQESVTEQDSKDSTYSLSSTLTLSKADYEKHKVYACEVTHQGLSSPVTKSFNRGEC
notes: also called 42F5H2 chimeric Ab
B2: 37B3G11-hIgG1 LALAPG (antibody)
heavy: QVQLQQPGAELVRPGASVKLSCKASGYTFTTYWMNWVKQRPGQGLEWIGMIDPSDSETHYNQMFKDKATLTVDKSSSTAYMQLSSLTSEDSAVYYCAVPSLYNSNYRFAYWGQGTLVTVSAASTKGPSVFPLAPSSKSTSGGTAALGCLVKDYFPEPVTVSWNSGALTSGVHTFPAVLQSSGLYSLSSVVTVPSSSLGTQTYICNVNHKPSNTKVDKKVEPKSCDKTHTCPPCPAPEAAGGPSVFLFPPKPKDTLMISRTPEVTCVVVDVSHEDPEVKFNWYVDGVEVHNAKTKPREEQYNSTYRVVSVLTVLHQDWLNGKEYKCKVSNKALGAPIEKTISKAKGQPREPQVYTLPPSREEMTKNQVSLTCLVKGFYPSDIAVEWESNGQPENNYKTTPPVLDSDGSFFLYSKLTVDKSRWQQGNVFSCSVMHEALHNHYTQKSLSLSPGK
light: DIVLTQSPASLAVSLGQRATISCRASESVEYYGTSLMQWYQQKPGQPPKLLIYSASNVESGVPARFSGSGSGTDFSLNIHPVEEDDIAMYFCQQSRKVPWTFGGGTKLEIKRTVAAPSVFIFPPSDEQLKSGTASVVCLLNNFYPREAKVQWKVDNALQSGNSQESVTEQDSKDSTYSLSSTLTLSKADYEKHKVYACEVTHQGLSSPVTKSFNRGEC
notes: also called 37B3G11 chimeric Ab
B3: 23H7E4-hIgG1 LALAPG (antibody)
heavy: QVQLQQPGAELVRPGASVKLSCKASGYTFTSYWLNWVKQRPGQGLEWIGMIDPSDSETHYNQVFKDKATLTVDKSSTTAYMQLSSLTSEDSAVYYCARWMVTKKTFDYWGQGTTLTVSSASTKGPSVFPLAPSSKSTSGGTAALGCLVKDYFPEPVTVSWNSGALTSGVHTFPAVLQSSGLYSLSSVVTVPSSSLGTQTYICNVNHKPSNTKVDKKVEPKSCDKTHTCPPCPAPEAAGGPSVFLFPPKPKDTLMISRTPEVTCVVVDVSHEDPEVKFNWYVDGVEVHNAKTKPREEQYNSTYRVVSVLTVLHQDWLNGKEYKCKVSNKALGAPIEKTISKAKGQPREPQVYTLPPSREEMTKNQVSLTCLVKGFYPSDIAVEWESNGQPENNYKTTPPVLDSDGSFFLYSKLTVDKSRWQQGNVFSCSVMHEALHNHYTQKSLSLSPGK
light: DIVLTQSPASLAVSLGQRATISCRASESVEYYGPSLMQWYQQKPGQPPKLLIYAASNVESGVPARFSGSGSGTDFSLNIHPVEEDDIAMYFCQQSRKVPYTFGGGAKLEIKRTVAAPSVFIFPPSDEQLKSGTASVVCLLNNFYPREAKVQWKVDNALQSGNSQESVTEQDSKDSTYSLSSTLTLSKADYEKHKVYACEVTHQGLSSPVTKSFNRGEC
notes: also called 23H7E4 chimeric Ab
B4: 91A11D11-hIgG1 LALAPG (antibody)
heavy: QVQLQQPGAELVRPGTSVKLSCKASGYTFTSYWMNWVKQRPGQGLEWIGMIDPSDSETHYNQMFKDKATLTVDESSSTAYMQLSSLTSEDSAVYFCARWTLVVAHFFDYWGQGTTLTVSSASTKGPSVFPLAPSSKSTSGGTAALGCLVKDYFPEPVTVSWNSGALTSGVHTFPAVLQSSGLYSLSSVVTVPSSSLGTQTYICNVNHKPSNTKVDKKVEPKSCDKTHTCPPCPAPEAAGGPSVFLFPPKPKDTLMISRTPEVTCVVVDVSHEDPEVKFNWYVDGVEVHNAKTKPREEQYNSTYRVVSVLTVLHQDWLNGKEYKCKVSNKALGAPIEKTISKAKGQPREPQVYTLPPSREEMTKNQVSLTCLVKGFYPSDIAVEWESNGQPENNYKTTPPVLDSDGSFFLYSKLTVDKSRWQQGNVFSCSVMHEALHNHYTQKSLSLSPGK
light: B3 light with S28T, M37L, A54G, I87V, A106T
notes: also called 91A11D11 chimeric Ab

These binders were tested against T1, human CD32B expressed on CHO-K1 cells (assay: flow cytometry, CHO-K1-hCD32B cells, geometric mean).
Procedure: (§1) In order to evaluate the binding activity of the chimeric mAbs to human CD16A expressed on cells, cell-based binding assay was employed as followed. […] The antibody dilutions were incubated with 1×10⁵ indicated cells in the 96-well microplate for one hour at 4° C. The antibodies binding to the antigen on the cell surface were detected with PE fluorophore-conjugated anti-human IgG Fc secondary antibodies (ThermoFisher scientific, Cat. No. 12-4998-82) at a dilution rate of 1:1000. Cells were analyzed by flow cytometer LSRFortessa Cell Analyzer (BD Biosciences). Data were analyzed with Flowjo 10.0 software. The graph and statistics analysis were generated with four-parameter nonlinear regression curve fit in Graphpad Prism 9 software.
(§2) To exclude the non-specific binding of the CD16A chimeric antibody to human CD16B and CD32B expressed on cells, cell-based binding assay was performed as described above. Firstly, CHO-K1 cells were stably transferred with one human CD16B spliced isoform hCD16B-NA1 and human CD32B. Then, the cells were incubated with the indicated concentrations of CD16A chimeric antibodies.

| binding result | Binder |
| --- | --- |
| no binding (tested: 100 nM) | B1 |
| no binding (tested: 100 nM) | B2 |
| no binding (tested: 100 nM) | B3 |
| no binding (tested: 100 nM) | B4 |

The binders below were run against T2, human CD16B-NA1 expressed on CHO-K1 cells (human, UniProt O75015 17-200) (assay: flow cytometry, CHO-K1-hCD16B-NA1 cells, geometric mean).
T2 construct: whole, on cells; also called hCD16B-NA1; CHO-K1-hCD16B-NA1
T2 sequence (O75015 other isoform, or with tags, fused parts or gaps): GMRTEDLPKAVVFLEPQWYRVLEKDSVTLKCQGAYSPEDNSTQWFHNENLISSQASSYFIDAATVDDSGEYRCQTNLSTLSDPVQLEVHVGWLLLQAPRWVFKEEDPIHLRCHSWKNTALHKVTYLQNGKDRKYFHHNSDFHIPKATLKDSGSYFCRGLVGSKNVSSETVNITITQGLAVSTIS
Procedure: as §1, §2

| binding result | Binder |
| --- | --- |
| no binding (tested: 100 nM) | B1 |
| no binding (tested: 100 nM) | B2 |
| no binding (tested: 100 nM) | B3 |
| no binding (tested: 100 nM) | B4 |

The binders below were run against T3, human CD16B-NA1 ECD his tag protein (human, UniProt O75015 17-200) (assay: ELISA, hCD16B-NA1-his coated at 2 ug/mL, OD450).
T3 construct: extracellular domain; Bought protein; also called hCD16B-NA1-his; hCD16B-NA1 protein
T3 sequence (O75015 other isoform, or with tags, fused parts or gaps limits assumed): as the sequence (O75015 other isoform, or with tags, fused parts or gaps) above
Procedure: (§3) In order to determine the binding ability of the chimeric Abs to human CD16A protein, ELISA-based binding assay was performed as followed. […] The mixture was incubated for 1 hour at room temperature (RT). The primary antibody was recognized by a detective antibody against human IgG Fc which was conjugated with horseradish peroxidase (HRP) (Jackson Immuno, Cat. No. 109-035-008). Tetramethylbenzidine (TMB), a substrate of HRP, was added to the wells to visualize the binding signal. After sufficient color development, stop solution was added to the wells. The absorbance of the signal was detected at 450 nm with Envision multilabel plate readers (PerkinElemer). The graph and statistics analysis were generated with four-parameter nonlinear regression curve fit in Graphpad Prism 9 software.
(§4) In order to determine the binding ability of the chimeric Abs to human CD16B protein, ELISA binding assay was performed as previously described. Three spliced isoforms of CD16B including human CD16B-NA1 ECD his tag protein (hCD16B-NA1-his, Acro Bio, Cat: No. CDB-H5227), human CD16B-NA2 ECD his tag protein (hCD16B-NA2-his, Acro Bio, Cat: No. CDB-H82Ea) and human CD16B-SH-his protein, were used as the coating antigens at 2 μg/mL.

| binding result | Binder |
| --- | --- |
| no binding (tested: 20 nM) | B1 |
| no binding (tested: 20 nM) | B2 |
| no binding (tested: 20 nM) | B3 |
| no binding (tested: 20 nM) | B4 |

What follows are binders tested against T4, hCD16A-158V-his protein (human, UniProt P08637 17-208) (assay: SPR (Biacore 8K), antibody captured on Protein A chip, antigen at 50 nM).
T4 construct: extracellular domain; Bought protein; also called human CD16A-158V-his; Human CD16A-158V (protein)
T4 sequence (P08637 17-208 F176V): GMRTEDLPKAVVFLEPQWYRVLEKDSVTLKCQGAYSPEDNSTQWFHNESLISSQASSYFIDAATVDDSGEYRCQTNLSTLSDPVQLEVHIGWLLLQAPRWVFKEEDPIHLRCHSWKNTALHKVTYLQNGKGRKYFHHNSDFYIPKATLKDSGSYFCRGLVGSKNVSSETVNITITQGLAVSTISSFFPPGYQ
Procedure: (§5) The binding affinity of the chimeric antibodies to human CD16A was determined with Biacore™. Briefly, the antibodies were captured with a Protein A chip. […] The antigen was allowed to dissociate for 500 s. The experiment was carried out on a Biacore™ 8K. Data analysis was carried out using Biacore™ 8K evaluation software.

| Kd [nM] | koff [s⁻¹] | kon [M⁻¹ s⁻¹] | Binder |
| --- | --- | --- | --- |
| 0.303 | 0.00139 | 4.59e+06 | B1 |
| 1.26 | 0.00377 | 2.98e+06 | B2 |
| 3.81 | 0.0107 | 2.81e+06 | B3 |
| 0.223 | 0.00142 | 6.93e+06 | B4 |

What follows are binders tested against T5, hCD16A-158F-his protein (human, UniProt P08637 17-208) in the same assay as above.
T5 construct: Bought protein
T5 sequence (P08637 17-208 limits assumed): as the sequence (P08637 17-208 F176V) above, with V160F counted along it
Procedure: as §5

| Kd [nM] | koff [s⁻¹] | kon [M⁻¹ s⁻¹] | Binder |
| --- | --- | --- | --- |
| 0.226 | 0.000873 | 3.86e+06 | B1 |
| 1.62 | 0.00531 | 3.27e+06 | B2 |
| 2.45 | 0.00772 | 3.16e+06 | B3 |
| 0.138 | 0.00102 | 7.39e+06 | B4 |

What follows are binders tested against T4, hCD16A-158V-his protein (assay: ELISA, plate-coated his-tagged antigen 2 ug/mL).
Procedure: as §3
(§6) In order to determine the cross reactivity of the chimeric Abs to cynomolgus CD16, ELISA binding assay was performed as described above. Recombinant cyno CD16 ECD his tag protein (cynoCD16-his, Acro Bio, Cat. No. FC6-C52H9) was used as the coating antigen at 2 μg/mL.

| EC50 [nM] | Binder |
| --- | --- |
| 0.11 | B1 |
| 0.17 | B2 |
| 0.13 | B3 |
| 0.12 | B4 |

The binders below were run against T5, hCD16A-158F-his protein (assay: ELISA, plate-coated his-tagged antigen 2 ug/mL).
Procedure: as §3, §6

| EC50 [nM] | Binder |
| --- | --- |
| 0.42 | B1 |
| 1.2 | B2 |
| 0.44 | B3 |
| 0.41 | B4 |

What follows are binders tested against T6, human CD16B-NA2 ECD his tag protein (human, UniProt O75015 17-200) (assay: ELISA, hCD16B-NA2-his coated at 2 ug/mL, OD450).
T6 construct: extracellular domain; Bought protein; also called hCD16B-NA2-his; hCD16B-NA2 protein
T6 sequence (O75015 17-200 N65S limits assumed): as the sequence (O75015 other isoform, or with tags, fused parts or gaps) above, with R20S, N49S, D66N, V90I counted along it
Procedure: as §3, §4

| binding result | Binder |
| --- | --- |
| no binding (tested: 20 nM) | B1 |
| no binding (tested: 20 nM) | B2 |
| no binding (tested: 20 nM) | B3 |
| no binding (tested: 20 nM) | B4 |

Each binder was assayed against T7, human CD16A-158V expressed on CHO-K1 cells (human, UniProt P08637 17-254) (assay: flow cytometry on antigen-expressing CHO-K1 cells).
T7 construct: whole, on cells; also called hCD16A-158V; CHO-K1-hCD16A-158V
T7 sequence (P08637 17-254 F176V): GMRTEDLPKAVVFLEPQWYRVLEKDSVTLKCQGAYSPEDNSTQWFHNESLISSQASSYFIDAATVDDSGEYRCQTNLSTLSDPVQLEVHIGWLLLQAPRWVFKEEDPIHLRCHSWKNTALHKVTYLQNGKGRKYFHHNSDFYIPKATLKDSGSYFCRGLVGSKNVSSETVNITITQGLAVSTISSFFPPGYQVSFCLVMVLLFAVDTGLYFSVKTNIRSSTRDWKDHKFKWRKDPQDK
Procedure: as §1
(§7) CHO-K1 cells stably expressing cynomolgus CD16 were used in the following test.

| EC50 [nM] | Binder |
| --- | --- |
| 0.47 | B1 |
| 0.68 | B2 |
| 0.8 | B3 |
| 0.45 | B4 |

Each binder was assayed against T8, human CD16A-158F expressed on CHO-K1 cells (human, UniProt P08637 17-254) (assay: flow cytometry on antigen-expressing CHO-K1 cells).
T8 construct: whole, on cells
T8 sequence (P08637 17-254): as the sequence (P08637 17-254 F176V) above, with V160F counted along it
Procedure: as §1, §7

| EC50 [nM] | Binder |
| --- | --- |
| 0.5 | B1 |
| 0.74 | B2 |
| 0.77 | B3 |
| 0.46 | B4 |
